# Measured values as given in patent US20120322150A1 (CARNEGIE INSTITUTION OF WASHINGTON, published 2012).
# B1: GST-BIN2 (enzyme, Arabidopsis, UniProt Q39011 1-380, looked up)
# chain: MADDKEMPAAVVDGHDQVTGHIISTTIGGKNGEPKQTISYMAERVVGTGSFGIVFQAKCLETGETVAIKKVLQDRRYKNRELQLMRVMDHPNVVCLKHCFFSTTSKDELFLNLVMEYVPESLYRVLKHYSSANQRMPLVYVKLYMYQIFRGLAYIHNVAGVCHRDLKPQNLLVDPLTHQVKICDFGSAKQLVKGEANISYICSRFYRAPELIFGATEYTTSIDIWSAGCVLAELLLGQPLFPGENAVDQLVEIIKVLGTPTREEIRCMNPHYTDFRFPQIKAHPWHKIFHKRMPPEAIDFASRLLQYSPSLRCTALEACAHPFFDELREPNARLPNGRPFPPLFNFKQEVAGSSPELVNKLIPDHIKRQLGLSFLNQSGT
# modifications: phospho-tyrosine 200 (autophosphorylation site of BIN2, detected on GST-BIN2 from E. coli)
# notes: Expressed and purified from E. coli; also called wild type GST-BIN2; not shown: GST (glutathione S-transferase) tag
# B2: BIN2 fused to the N-terminal half (nYFP) of YFP (enzyme, Arabidopsis, UniProt Q39011 1-380, looked up)
# chain: B1 chain
# notes: BiFC construct in tobacco cells; also called BIN2-nYFP; not shown: N-terminal half of YFP (nYFP)
# B3: GST-BSK1 (enzyme, Arabidopsis, UniProt Q944A7 1-512, looked up)
# chain: MGCCQSLFSGDNPLGKDGVQPQPLSQNNHGGATTADNGGSGGASGVGGGGGGGGIPSFSEFSFADLKAATNNFSSDNIVSESGEKAPNLVYKGRLQNRRWIAVKKFTKMAWPEPKQFAEEAWGVGKLRHNRLANLIGYCCDGDERLLVAEFMPNDTLAKHLFHWENQTIEWAMRLRVGYYIAEALDYCSTEGRPLYHDLNAYRVLFDEDGDPRLSCFGLMKNSRDGKSYSTNLAYTPPEYLRNGRVTPESVTYSFGTVLLDLLSGKHIPPSHALDMIRGKNIILLMDSHLEGKFSTEEATVVVELASQCLQYEPRERPNTKDLVATLAPLQTKSDVPSYVMLGIKKQEEAPSTPQRPLSPLGEACSRMDLTAIHQILVMTHYRDDEGTNELSFQEWTQQMKDMLDARKRGDQSFREKDFKTAIDCYSQFIDVGTMVSPTVFGRRSLCYLLCDQPDAALRDAMQAQCVYPDWPTAFYMQSVALAKLNMNTDAADMLNEAAQLEEKRQRGGRGS
# notes: also called full-length BSK1; not shown: GST (glutathione S-transferase) tag
# B4: GST-BRI1-K (receptor, Arabidopsis, UniProt O22476 815-1196, looked up)
# chain: REMRKRRRKKEAELEMYAEGHGNSGDRTANNTNWKLTGVKEALSINLAAFEKPLRKLTFADLLQATNGFHNDSLIGSGGFGDVYKAILKDGSAVAIKKLIHVSGQGDREFMAEMETIGKIKHRNLVPLLGYCKVGDERLLVYEFMKYGSLEDVLHDPKKAGVKLNWSTRRKIAIGSARGLAFLHHNCSPHIIHRDMKSSNVLLDENLEARVSDFGMARLMSAMDTHLSVSTLAGTPGYVPPEYYQSFRCSTKGDVYSYGVVLLELLTGKRPTDSPDFGDNNLVGWVKQHAKLRISDVFDPELMKEDPALEIELLQHLKVAVACLDDRAWRRPTMVQVMAMFKEIQAGSGIDSQSTIRSIEDGGFSTIEMVDMSIKEVPEGKL
# notes: domain: kinase domain; also called GST BR11-K; kinase domain of BRI1; not shown: GST (glutathione S-transferase) tag
# B5: GST-BAK1-K (receptor, Arabidopsis, UniProt Q94F62 247-615, looked up)
# chain: AWWRRKKPQDHFFDVPAEEDPEVHLGQLKRFSLRELQVASDNFSNKNILGRGGFGKVYKGRLADGTLVAVKRLKEERTQGGELQFQTEVEMISMAVHRNLLRLRGFCMTPTERLLVYPYMANGSVASCLRERPESQPPLDWPKRQRIALGSARGLAYLHDHCDPKIIHRDVKAANILLDEEFEAVVGDFGLAKLMDYKDTHVTTAVRGTIGHIAPEYLSTGKSSEKTDVFGYGVMLLELITGQRAFDLARLANDDDVMLLDWVKGLLKEKKLEALVDVDLQGNYKDEEVEQLIQVALLCTQSSPMERPKMSEVVRMLEGDGLAERWEEWQKEEMFRQDFNYPTHHPAVSGWIIGDSTSQIENEYPSGPR
# notes: domain: kinase domain; also called kinase domain of BAK1; not shown: GST (glutathione S-transferase) tag
# Key:
# [1] = target: T1, MBP-BSU1 (Arabidopsis, UniProt Q9LR78 1-793); test: overlay blot: GST fusions on membrane probed with MBP-BSU1 and anti-MBP antibody
# T1 construct: Recombinant fusion used as probe in overlay (far-western) blots and in phosphatase assays; also called BSU1 from E. coli
# T1 sequence (Q9LR78 whole entry, the tested form may be a part): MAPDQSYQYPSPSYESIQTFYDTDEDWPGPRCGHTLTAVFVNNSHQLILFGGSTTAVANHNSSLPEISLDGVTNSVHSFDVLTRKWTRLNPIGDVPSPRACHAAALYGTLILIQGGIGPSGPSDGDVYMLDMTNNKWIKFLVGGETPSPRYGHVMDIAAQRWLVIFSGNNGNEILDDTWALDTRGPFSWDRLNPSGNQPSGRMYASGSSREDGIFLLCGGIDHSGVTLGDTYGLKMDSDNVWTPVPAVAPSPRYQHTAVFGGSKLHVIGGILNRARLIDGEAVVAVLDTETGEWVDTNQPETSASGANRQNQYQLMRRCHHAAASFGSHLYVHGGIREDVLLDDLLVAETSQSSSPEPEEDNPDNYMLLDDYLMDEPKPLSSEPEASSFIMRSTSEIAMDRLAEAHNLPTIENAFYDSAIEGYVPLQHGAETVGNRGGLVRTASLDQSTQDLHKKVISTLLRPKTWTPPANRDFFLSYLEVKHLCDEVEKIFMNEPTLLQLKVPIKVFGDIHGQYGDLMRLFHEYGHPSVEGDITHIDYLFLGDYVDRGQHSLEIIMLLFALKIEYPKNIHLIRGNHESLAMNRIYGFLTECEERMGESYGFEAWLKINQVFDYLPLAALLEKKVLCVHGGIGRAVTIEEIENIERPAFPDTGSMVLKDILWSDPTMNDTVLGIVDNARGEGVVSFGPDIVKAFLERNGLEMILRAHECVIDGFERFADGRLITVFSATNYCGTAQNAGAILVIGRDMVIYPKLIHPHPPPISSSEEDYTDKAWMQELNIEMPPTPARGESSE
# Protocol: To test interaction of BSU1 with BIN2 or bin2-1 in vitro, a gel blot separating GST, GST-BIN2, GSTbin2-1 was incubated with 20 μg MBP-BSU1 in 5% non-fat dry milk/PBS buffer and washed four times. The blot was then probed with a polyclonal anti-MBP antibody. In the case of BSU1 overlay to BSK1, GST-BRI1-K, GST-BAK1-K and GST-BSK1 were separated by SDS-PAGE. To prepare phosphorylated BSK1, GST-BSK1 was incubated with GST-BRI1-K and 100 μM ATP in the kinase buffer for 2 hrs before SDS-PAGE. The blot was sequentially probed with MBP-BSU1 and a monoclonal anti-MBP antibody (New England Biolab, Beverly, Mass.).
# [2] = target: T2, BSU1 fused to C-terminal half (cYFP) of YFP (Arabidopsis, UniProt Q9LR78 1-793); test: BiFC in tobacco cells
# T2 construct: BiFC construct in tobacco leaf epidermal cells, with BIN2-nYFP or bin2-1-nYFP; also called BSU1-cYFP; not shown: C-terminal half of YFP (cYFP)
# T2 sequence (Q9LR78 whole entry, the tested form may be a part): as above
# Description: (§1) GST, GST-BIN2 and GST-bin2-1 were separated by SDS-PAGE and blotted onto nitrocellulose membrane. The blot was probed sequentially with MBP-BSU1 and anti-MBP antibody (upper) and then stained with Ponceau S (lower). […] The protein extracts of the tobacco leaves transiently transformed with the indicated constructs were immunoprecipitated with anti-GFP antibody, and the immunoblot was probed with anti-myc and anti-GFP antibody. […] The indicated constructs were transformed into tobacco leaf epidermal cells. Bright spots in BIN2-nYFP+cYFP are chloroplast auto-fluorescence. […] Arabidopsis plants (F1) expressing BSU1-YFP or co-expressing BSU1-YFP and BIN2-myc were grown on the medium containing BR biosynthetic inhibitor, brassinazole (BRZ), for 10 days. The plants were treated with 10 μM MG-132 for 1 hr and then with 0.2 μM BL or mock solution for 15 min. Total protein extracts were immunoprecipitated with anti-myc antibodies, and the immunoblot was probed with anti-GFP and anti-myc antibodies.
# (§2) Transformation by Agrobacterium infiltration, observations of subcellular localization and BiFC signal in tobacco or Arabidopsis were performed as described previously 5. Fluorescence of YFP was visualized by using a spinning-disk confocal microscope (Leica Microsystems, Heerbruag, Germany).
# [3] = target: T3, BSL1 fused C-terminal half (cYFP) of yellow fluorescence protein (Arabidopsis, UniProt Q8L7U5 1-881); test: BiFC in tobacco cells
# T3 construct: BiFC construct; also called BSL1-cYFP; not shown: C-terminal half of YFP (cYFP)
# T3 sequence: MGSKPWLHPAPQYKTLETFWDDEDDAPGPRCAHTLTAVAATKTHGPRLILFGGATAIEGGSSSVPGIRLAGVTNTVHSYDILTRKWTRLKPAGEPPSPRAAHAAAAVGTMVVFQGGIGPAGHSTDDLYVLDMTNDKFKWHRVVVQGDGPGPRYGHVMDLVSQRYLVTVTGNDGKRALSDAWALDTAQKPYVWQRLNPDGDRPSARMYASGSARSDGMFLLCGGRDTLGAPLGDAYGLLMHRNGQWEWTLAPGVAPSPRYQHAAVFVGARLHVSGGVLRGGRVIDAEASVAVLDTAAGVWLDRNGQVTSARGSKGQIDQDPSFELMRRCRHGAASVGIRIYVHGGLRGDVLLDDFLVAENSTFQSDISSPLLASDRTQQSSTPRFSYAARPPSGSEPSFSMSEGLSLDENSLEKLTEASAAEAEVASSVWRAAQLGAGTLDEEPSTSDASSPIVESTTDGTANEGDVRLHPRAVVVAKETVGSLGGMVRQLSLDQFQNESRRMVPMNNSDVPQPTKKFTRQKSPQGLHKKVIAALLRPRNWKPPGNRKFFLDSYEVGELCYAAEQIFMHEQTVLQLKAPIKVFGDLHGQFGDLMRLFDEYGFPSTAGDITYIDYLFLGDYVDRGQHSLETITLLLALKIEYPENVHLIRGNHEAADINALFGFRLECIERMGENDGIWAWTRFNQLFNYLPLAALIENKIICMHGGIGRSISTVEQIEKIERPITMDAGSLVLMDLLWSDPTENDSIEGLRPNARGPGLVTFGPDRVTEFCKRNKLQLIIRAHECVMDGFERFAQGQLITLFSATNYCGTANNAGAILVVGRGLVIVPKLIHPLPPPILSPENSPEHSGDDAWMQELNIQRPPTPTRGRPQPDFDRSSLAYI
# Description: as §1, §2
# [4] = target: T1, MBP-BSU1; test: in vitro overlay blot, MBP-BSU1 probe, anti-MBP detection
# Protocol: Total protein extracts obtained from Arabidopsis plants (F1) expressing BSU1 -YFP or co-expressing BSU1-YFP and BSK1-myc were immunoprecipitated with anti-myc, and the immunoblot was probed with anti-GFP and anti-myc antibody. […] GST-BSK1 or GST-BSK1 S230A was incubated with GST-BRI1-K or GST for 2 hrs. […] In the presence of BR (+BR), BR binding to the extracellular domain of BRI1 induces dissociation of BKI1 and association and inter-activation between BRI1 and BAKI. Activated BRI1 then phosphorylates BSK1, which in turn dissociates from the receptor complex and interacts with and presumably activate BSU1. BSU1 inactivates BIN2 by dephosphorylating its pTyr200, allowing accumulation of unphosphorylated BZR1/2, likely with help of a phosphatase that is yet to be identified. Unphosphorylated BZR1/2 accumulate in the nucleus and alter the expression of BR-target genes, leading to cellular and developmental responses. While individual representative protein is shown for each function, in Arabidopsis most of these components have about 2 to 5 homologous proteins (paralogs) that can contribute to the same or similar signaling function.
# To test interaction of BSU1 with BIN2 or bin2-1 in vitro, a gel blot separating GST, GST-BIN2, GSTbin2-1 was incubated with 20 μg MBP-BSU1 in 5% non-fat dry milk/PBS buffer and washed four times. The blot was then probed with a polyclonal anti-MBP antibody. […]
Binder,binding result [1],binding result [4],also measured
B1,binds,,
B2,,,binding result [2]: binds; binding result [3]: binds
B3,binds,,
B4,,no binding,
B5,,no binding,
